In PMC4572887, “GnT1IP-L specifically inhibits MGAT1 in the Golgi via its luminal domain” (eLife, 2015):

Experiments:
[1] = target: the molecule itself; assay: FRET or BRET; COS-7 cells stably expressing GnT1IP-L-mVen, co-transfected with GnT1IP-L-mChe and MGAT1-HA as competitor, with or without 40 µM chloroquine for 4 or 16 hr; FRET efficiency by acceptor bleaching
human MGAT1-mChe = target: T1, human MGAT1-mChe (human, UniProt P26572 1-445); assay: FRET or BRET; acceptor-bleaching FRET microscopy on fixed cells, mVen donor and mChe acceptor; COS-7 cells stably expressing GnT1IP-L-mVen, transiently transfected with the mChe-tagged partner; untreated controls, recovery 4 hr after removal of nocodazole, and 40 µM chloroquine for 4 or 16 hr; settings: partners not purified
T1 construct: N-acetylglucosaminyltransferase MGAT1, human, full-length cDNA clone; also called GlcNAc-TI; GnT-1; source: COS-7 or Lec1 CHO cells, transiently transfected; in cells; not shown: monomeric mCherry (mChe), C-terminal, kept
T1 sequence (looked up): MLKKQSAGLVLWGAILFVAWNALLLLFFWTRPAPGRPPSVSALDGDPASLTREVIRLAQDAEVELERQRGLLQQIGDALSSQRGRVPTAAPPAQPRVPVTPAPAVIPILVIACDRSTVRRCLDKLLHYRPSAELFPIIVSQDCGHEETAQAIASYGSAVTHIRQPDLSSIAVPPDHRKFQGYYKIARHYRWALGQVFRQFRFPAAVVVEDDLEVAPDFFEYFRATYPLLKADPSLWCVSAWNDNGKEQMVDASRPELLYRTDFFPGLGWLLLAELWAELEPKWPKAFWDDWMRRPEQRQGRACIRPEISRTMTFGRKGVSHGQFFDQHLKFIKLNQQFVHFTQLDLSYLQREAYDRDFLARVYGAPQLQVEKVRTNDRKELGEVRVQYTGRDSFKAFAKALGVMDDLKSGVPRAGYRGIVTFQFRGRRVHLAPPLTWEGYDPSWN

[2] = target: the molecule itself; assay: as above

- FRET efficiency (untreated control) (human MGAT1-mChe): 38%
B1: Mouse GnT1IP-L-mVen (natural protein, UniProt Q9D4R2-2 1-417, looked up)
chain: MCLGESVGDLRTVATAPWEGEQARGVKDAGSVPVQPGVGSDAATMKAKNVNLLFAFVAVLLFGFSCFCISRMNQTNNQLINCRNHVLEFKEIMLRLKNKSENHHQDLMQVLYQMKRKAAHTTRSSGNFLEKKGSILSQHETLPNQFEVLKYFLPHLRTAGKLYPAIATSKGRAGVSFALGISTINRGNHTYLKQTLTSVLSRMTPEEEEDSVVIVSVADTDESYLKSVVRMVKTKFRKQVQSGVLEVISIPTLFYPQTLLDKKTKTDSESWQIKQVLDFCILMLYAQPKATYYLQLEDDIVAKKMYFTKMKDFVNSLTSKNWFFIEFSVLGFIGKLFRSKDLTDFVHFFLMFYETKPIDILLDDIFLIRVCISGEPVRSCLQRKKGFRIQYRPSLFQHVGTQSSFPGREQHLKDNYY
notes: GnT1IP-L, mouse, the long form of 417 aa (GnT1IP-S with 44 additional N-terminal amino acids), GenBank HM067443; In the homomer FRET experiments the second copy carried C-terminal monomeric mCherry (GnT1IP-L-mChe) instead of mVen; it is written as the same molecule; also called MGAT4D (long form); source: COS-7 or Lec1 CHO cells stably expressing it, or COS-7 cells transiently transfected; in …
- fold increase of homomer FRET with chloroquine, MGAT1-HA co-expressed as competitor [1]: ~2 fold
- FRET efficiency (untreated control) [2]: 32%
